Results as given in patent publication US20260167699A1 (Chugai, published 2026).
Residue numbers refer to the chain shown, from its start. In names and notes the source's numbering stands. Where two headings read alike, the source gives them in different places. Blank lines part the entries; values can stand above or below the binder they belong to.

How the values were obtained:
[1] = target: T1, FcγRIIIa extracellular domain with C-terminal His tag (allotype not given) (UniProt P08637 17-208, limits assumed); assay: SPR (Biacore), from the KD values of Table 5
T1 construct: extracellular domain; also called 3a

[2] = target: T2, integrin αvβ3 (R & D Systems, Inc.) (UniProt P06756 31-992; P05106 27-718); assay: ELISA on coated integrin αvβ3 (1 µg/mL), detection with HRP-labeled anti-human IgG antibody
T2 construct: Bought protein
Protocol: The integrin αvβ3 binding of each molecule with the RGD (Arg-Gly-Asp) peptide inserted in the Fc region was assessed by ELISA (enzyme-Linked immunosorbent assay). Specifically, integrin αvβ3 (R & D Systems, Inc.) diluted to 1 μg/mL with a coating buffer (0.1 M NaHCO₃, pH 9.6) was added at a concentration of 100 μL/well to Nunc-Immuno™ MicroWell™ 96 well solid plates (Nunc) to immobilize the integrin αvβ3 to the plates. Each well of the antigen (integrin αvβ3)-immobilized plates was washed three times with 250 μL of a TBS solution containing 0.1 g/L calcium chloride and 0.1 g/L magnesium chloride (referred to as a TBS(+) solution). A TBS solution containing 5% BSA, 0.1 g/L calcium chloride, and 0.1 g/L magnesium chloride (referred to as a blocking solution) was added thereto at a concentration of 250 μL/well, and the plates were incubated at room temperature for 1 hour.
After removal of the blocking solution, each well was washed three times with a TBS(+) solution. […]
After removal of the HRP-labeled antibody solution, each well was washed three times with a TBS(+) solution. […] The absorbance of the solution whose reaction had been stopped was measured at a wavelength of 450 nm.

[3] = target: T3, FcγRIIIa(F) extracellular domain with C-terminal His tag (human, UniProt P08637 17-208); assay: SPR (Biacore), captured antibody, FcγR analyte, 1:1 Langmuir fit
T3 construct: extracellular domain; polymorphic form F158; also called FcγRIIIa F type
Protocol: (§1) The antibody of interest was analyzed for its interaction with FcγR using a BiaCore™ T100, BiaCore™ A100, or BiaCore™ 4000 surface plasmon resonance system (GE Healthcare Japan Corp.). The running buffer used was HBS-EP+ (GE Healthcare Japan Corp.). The assay temperature was set to 25° C. The sensor chips used were: a chip prepared by immobilizing antigenic peptides onto Series S Sensor Chip CM5 (GE Healthcare Japan Corp.) by the amine coupling method; a chip prepared by immobilizing antigenic peptides biotinylated in advance onto Series S Sensor Chip SA (certified) (GE Healthcare Japan Corp.) through their interaction; a chip prepared by immobilizing protein L (ACTIGEN, BioVision, Inc.) onto Series S Sensor Chip CM5 (GE Healthcare Japan Corp.); and a chip prepared by immobilizing protein A/G (Thermo Fisher Scientific K.K.) onto Series S Sensor Chip CM5 (GE Healthcare Japan Corp.). The antibody of interest was captured onto any of these chips and allowed to interact with FcγR diluted with a running buffer. The antibody captured on the chip was washed off through the reaction of 10 mM glycine-HCl (pH 1.5) to regenerate the chip, which was repetitively used.

[4] = target: T4, FcγRIIIa(V) extracellular domain with C-terminal His tag (human, UniProt P08637 17-208); assay: as above
T4 construct: extracellular domain; polymorphic form V158; also called FcγRIIIa V type
Protocol: as §1

[5] = target: T5, FcγRIIa(R) extracellular domain with C-terminal His tag (human, UniProt P12318 34-217); assay: as above
T5 construct: extracellular domain; polymorphic form R131; also called FcγRIIa R type
T5 sequence: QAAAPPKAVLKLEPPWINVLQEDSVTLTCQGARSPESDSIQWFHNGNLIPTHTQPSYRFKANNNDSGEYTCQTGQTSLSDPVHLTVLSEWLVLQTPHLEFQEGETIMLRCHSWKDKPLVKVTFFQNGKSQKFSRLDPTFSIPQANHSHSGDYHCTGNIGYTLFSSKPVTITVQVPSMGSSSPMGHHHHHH
Protocol: as §1

[6] = target: T6, FcγRIIa(H) extracellular domain with C-terminal His tag (human, UniProt P12318 34-217); assay: as above
T6 construct: extracellular domain; polymorphic form H131; also called FcγRIIa H type
T6 sequence: T5 sequence with R134H
Protocol: as §1

[7] = target: T7, FcγRIa extracellular domain with C-terminal His tag (human, UniProt P12314 16-292); assay: as above
T7 construct: extracellular domain
Protocol: as §1

[8] = target: T3, FcγRIIIa(F) extracellular domain with …; assay: as above; remark: listed apart in the source
Protocol: as §1

[9] = target: T4, FcγRIIIa(V) extracellular domain with …; assay: as above; remark: listed apart in the source
Protocol: as §1

[10] = target: T5, FcγRIIa(R) extracellular domain with …; assay: as above; remark: listed apart in the source
Protocol: as §1

[11] = target: T6, FcγRIIa(H) extracellular domain with …; assay: as above; remark: listed apart in the source
Protocol: as §1

[12] = target: T7, FcγRIa extracellular domain with …; assay: as above; remark: listed apart in the source
Protocol: as §1

[13] = target: T8, FcγRIIb extracellular domain with C-terminal His tag (human, UniProt P31994 43-217); assay: SPR (Biacore), captured antibody, FcγR analyte, 1:1 Langmuir fit; naturally occurring IgG1 (not afucosylated)
T8 construct: extracellular domain
T8 sequence: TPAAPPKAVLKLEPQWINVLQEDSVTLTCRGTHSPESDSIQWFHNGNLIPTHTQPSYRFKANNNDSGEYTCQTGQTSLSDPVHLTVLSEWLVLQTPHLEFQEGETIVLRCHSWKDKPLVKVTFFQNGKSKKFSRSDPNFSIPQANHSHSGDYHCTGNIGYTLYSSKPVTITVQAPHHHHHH
Protocol: as §1

[14] = target: T8, FcγRIIb extracellular domain with …; assay: SPR (Biacore), captured antibody, FcγR analyte, 1:1 Langmuir fit
Protocol: as §1

[15] = target: T8, FcγRIIb extracellular domain with …; assay: as above; remark: listed apart in the source
Protocol: as §1

T3 sequence (P08637 other isoform, or with tags, fused parts or gaps): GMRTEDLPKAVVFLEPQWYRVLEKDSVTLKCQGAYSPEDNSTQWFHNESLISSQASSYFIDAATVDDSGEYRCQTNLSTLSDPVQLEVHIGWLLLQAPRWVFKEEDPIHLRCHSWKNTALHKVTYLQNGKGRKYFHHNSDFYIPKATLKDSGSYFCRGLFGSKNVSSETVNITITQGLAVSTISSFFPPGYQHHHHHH
T7 sequence (P12314 other isoform, or with tags, fused parts or gaps): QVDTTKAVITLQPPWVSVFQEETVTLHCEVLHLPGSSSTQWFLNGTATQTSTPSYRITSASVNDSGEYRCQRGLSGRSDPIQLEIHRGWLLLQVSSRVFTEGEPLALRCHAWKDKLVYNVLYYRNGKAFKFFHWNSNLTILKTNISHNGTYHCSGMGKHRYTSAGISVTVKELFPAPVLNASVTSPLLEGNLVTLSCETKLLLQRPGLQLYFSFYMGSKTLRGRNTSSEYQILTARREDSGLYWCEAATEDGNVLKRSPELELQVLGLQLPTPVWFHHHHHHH
T4 sequence (P08637 other isoform, or with tags, fused parts or gaps): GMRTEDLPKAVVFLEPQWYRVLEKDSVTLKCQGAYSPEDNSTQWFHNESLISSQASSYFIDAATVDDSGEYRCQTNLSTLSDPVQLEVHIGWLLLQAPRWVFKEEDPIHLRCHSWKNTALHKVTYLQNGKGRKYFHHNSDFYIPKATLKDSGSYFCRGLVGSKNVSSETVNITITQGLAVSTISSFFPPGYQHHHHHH
T2 sequence (P06756 31-992, chain 1 of 2): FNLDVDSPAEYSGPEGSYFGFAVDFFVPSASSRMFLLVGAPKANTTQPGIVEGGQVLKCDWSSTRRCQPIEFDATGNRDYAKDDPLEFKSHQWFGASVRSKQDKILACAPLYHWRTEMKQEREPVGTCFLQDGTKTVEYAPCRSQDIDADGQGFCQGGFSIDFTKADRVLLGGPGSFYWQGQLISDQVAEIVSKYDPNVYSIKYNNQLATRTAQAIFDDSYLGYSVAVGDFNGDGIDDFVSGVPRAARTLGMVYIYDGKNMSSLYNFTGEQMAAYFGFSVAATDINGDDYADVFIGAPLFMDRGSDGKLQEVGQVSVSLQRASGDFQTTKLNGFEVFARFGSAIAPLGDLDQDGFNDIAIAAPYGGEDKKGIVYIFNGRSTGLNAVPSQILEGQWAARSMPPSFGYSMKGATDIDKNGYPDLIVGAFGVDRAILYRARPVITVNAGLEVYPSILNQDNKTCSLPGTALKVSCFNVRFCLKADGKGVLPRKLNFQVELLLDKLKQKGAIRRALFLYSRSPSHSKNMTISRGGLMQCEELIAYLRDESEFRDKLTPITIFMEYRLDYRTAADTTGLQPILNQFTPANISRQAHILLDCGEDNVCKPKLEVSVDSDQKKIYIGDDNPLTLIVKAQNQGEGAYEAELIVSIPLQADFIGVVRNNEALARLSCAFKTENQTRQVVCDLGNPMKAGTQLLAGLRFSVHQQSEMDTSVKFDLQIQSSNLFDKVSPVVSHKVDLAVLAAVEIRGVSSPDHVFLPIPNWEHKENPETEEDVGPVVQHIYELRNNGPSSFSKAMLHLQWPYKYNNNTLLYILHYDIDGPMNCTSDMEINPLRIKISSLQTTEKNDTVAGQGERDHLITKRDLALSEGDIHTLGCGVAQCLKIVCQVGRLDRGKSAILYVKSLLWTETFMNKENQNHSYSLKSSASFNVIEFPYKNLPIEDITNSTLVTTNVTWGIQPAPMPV
T2 sequence (P05106 27-718, chain 2 of 2): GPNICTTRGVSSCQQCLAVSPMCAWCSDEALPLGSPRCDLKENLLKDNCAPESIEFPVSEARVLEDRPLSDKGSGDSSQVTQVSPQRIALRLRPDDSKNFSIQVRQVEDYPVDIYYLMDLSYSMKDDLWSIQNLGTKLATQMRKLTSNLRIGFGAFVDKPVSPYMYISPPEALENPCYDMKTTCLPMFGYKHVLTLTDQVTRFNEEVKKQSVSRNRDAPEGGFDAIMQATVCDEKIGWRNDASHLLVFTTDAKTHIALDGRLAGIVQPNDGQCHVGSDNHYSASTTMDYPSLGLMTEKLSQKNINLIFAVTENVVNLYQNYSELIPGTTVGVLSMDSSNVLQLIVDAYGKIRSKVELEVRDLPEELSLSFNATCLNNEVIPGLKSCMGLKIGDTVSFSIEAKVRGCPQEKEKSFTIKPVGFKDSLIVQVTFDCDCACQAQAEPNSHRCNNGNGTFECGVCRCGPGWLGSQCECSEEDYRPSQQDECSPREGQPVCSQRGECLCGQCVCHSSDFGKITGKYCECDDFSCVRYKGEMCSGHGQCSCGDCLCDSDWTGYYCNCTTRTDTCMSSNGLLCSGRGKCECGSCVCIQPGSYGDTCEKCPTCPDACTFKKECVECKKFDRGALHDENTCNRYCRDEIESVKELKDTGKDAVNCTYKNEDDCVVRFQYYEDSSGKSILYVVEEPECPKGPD

- fold FcγRIIIa-binding activity against the corresponding heterodimerized antibody (GpH7-A5/GpH7-B78/GpL16-k0) [1]: ~9 times
B1: GpH7-A57/GpH7-B78/GpL16-k0 (antibody, human IgG1, kappa)
heavy 1: QVQLVQSGAEVKKPGASVTVSCKASGYTFTDYEMHWIRQPPGEGLEWIGAIDPKTGDTAYSESFQDRVTLTADKSTSTAYMELSSLTSEDTAVYYCTRFYSYTYWGQGTLVTVSSASTKGPSVFPLAPSSKSTSGGTAALGCLVKDYFPEPVTVSWNSGALTSGVHTFPAVLQSSGLYSLSSVVTVPSSSLGTQTYICNVNHKPSNTKVDKKVEPKSCDKTHTCPPCPAPELLGGPDVFLFPPKPKDTLMISRTPEVTCVVVDVSHEDPEVKFNWYVDGVEVHNAKTKPREEQYNSTYRVVSVLTVLHQDWLNGKEYKCKVSNKALPLPEEKTISKAKGQPREPQVYTLPPSRKELTKNQVSLTCLVKGFYPSDIAVEWESNGQPENNYKTTPPVLDSDGSFFLYSKLTVDKSRWQQGNVFSCSVMHEALHNRYTQKSLSLSP
heavy 2: B1 heavy 1 with K354D, R433H, K437E
light: DIVMTQSPLSLPVTPGEPASISCQASESLVHSNRNTYLHWYLQKPGQSPQLLIYKVSNRFSGVPDRFSGSGSGTDFTLKISRVEAEDVGVYYCSQNTHVPPTFGQGTKVEIERTVAAPSVFIFPPSDEQLKSGTASVVCLLNNFYPREAKVQWKVDNALQSGNSQESVTEQDSKDSTYSLSSTLTLSKADYEKHKVYACEVTHQGLSSPVTKSFNRGEC
notes: Called homodimerized: S239D, A330L, I332E in both H chains

- fold FcγRIIIa-binding activity against GpH7-A5/GpH7-B78/GpL16-k0 [1]: ≥ 10 times
B2: GpH7-TA7/GpH7-B78/GpL16-k0 (antibody, human IgG1, kappa)
heavy 1: B1 heavy 1 with L232Y, G234W, D237S, S296A, L328A, E330I
heavy 2: B1 heavy 1 with K354D, R433H, K437E
light: B1 light
notes: L234Y, G236W, S298A in one H chain and S239D, A330L, I332E in the other

- binding result [2]: no binding (tested: 100 µg/mL)
B3: H240-Kn125/H240-Hl076/L73-k0 (antibody, human IgG1, kappa)
heavy 1: QDQLVQSGAEVKKPGASVKVSCKASGFNIKDTYIQWVRQAPGQGLEWMGRIDPLRKQTKYREKFEGRVTITADTSTNTAYMELSSLRSEDTAVYYCVRSGREFDYWGQGTLVTVSSASTKGPSVFPLAPSSKSTSGGTAALGCLVKDYFPEPVTVSWNSGALTSGVHTFPAVLQSSGLYSLSSVVTVPSSSLGTQTYICNVNHKPSNTKVDKKVEPKSCDKTHTCPPCPAPEYQWGPMVFLFPPKPKDTLMISRTPEVTCVVVDVSDEEPEVKFNWYVDGVEVHNAKTKPREEQYNATYRVVSVLTVLHQDWLNGKEYKCKVSNKALPAPIEKTISKAKGQPREPQVCTLPPSRDELTKNQVSLWCLVKGFYPSDIAVEWESNGQPENNYKTTPPVLDSDGSFFLYSKLTVDKSRWQQGNVFSCSVMHEALHNHYTQKSLSLSP
heavy 2: QDQLVQSGAEVKKPGASVKVSCKASGFNIKDTYIQWVRQAPGQGLEWMGRIDPLRKQTKYREKFEGRVTITADTSTNTAYMELSSLRSEDTAVYYCVRSGREFDYWGQGTLVTVSSASTKGPSVFPLAPSSKSTSGGTAALGCLVKDYFPEPVTVSWNSGALTSGVHTFPAVLQSSGLYSLSSVVTVPSSSLGTQTYICNVNHKPSNTKVDKKVEPKSCDKTHTCPPCPAPELLGGPSVFLFPPKPKDTLMISRTPEVTCVVVDVSHEEPEVKFNWYVDGVEVHNAKTKPREEQYNSTYRVVSVLTVLHQDWLNGKEYKCKVSNDALPMPIEETISKAKGQPREPQVYTLPPSRCELTKNQVSLSCAVKGFYPSDIAVEWESNGQPENNYKTTPPVLDSDGSFFLVSKLTVDKSRWQQGNVFSCSVMHEALHNHYTQKSLSLSP
light: DIQMTQSPSSLSASVGDRVTITCRASQDIHKYIAWYQQKPGQAPRLLIQYTSTLQPGVPSRFSGSGSGTDYTFTISSLQPEDIATYYCLQYEQLRTFGGGTKVEIKRTVAAPSVFIFPPSDEQLKSGTASVVCLLNNFYPREAKVQWKVDNALQSGNSQESVTEQDSKDSTYSLSSTLTLSKADYEKHKVYACEVTHQGLSSPVTKSFNRGEC
notes: also called Hl076/Kn125; parent peptide

- Kd [3]: 1400 nM
- Kd [4]: 310 nM
- Kd [5]: 880 nM
- Kd [6]: 660 nM
- Kd [7]: 0.23 nM
- Kd [8]: 1400 nM
- Kd [9]: 310 nM
- Kd [10]: 880 nM
- Kd [11]: 660 nM
- Kd [12]: 0.23 nM
- Kd [13]: 6000 nM
B4: H240-G1d/L73-k0 (antibody, human IgG1, kappa)
heavy: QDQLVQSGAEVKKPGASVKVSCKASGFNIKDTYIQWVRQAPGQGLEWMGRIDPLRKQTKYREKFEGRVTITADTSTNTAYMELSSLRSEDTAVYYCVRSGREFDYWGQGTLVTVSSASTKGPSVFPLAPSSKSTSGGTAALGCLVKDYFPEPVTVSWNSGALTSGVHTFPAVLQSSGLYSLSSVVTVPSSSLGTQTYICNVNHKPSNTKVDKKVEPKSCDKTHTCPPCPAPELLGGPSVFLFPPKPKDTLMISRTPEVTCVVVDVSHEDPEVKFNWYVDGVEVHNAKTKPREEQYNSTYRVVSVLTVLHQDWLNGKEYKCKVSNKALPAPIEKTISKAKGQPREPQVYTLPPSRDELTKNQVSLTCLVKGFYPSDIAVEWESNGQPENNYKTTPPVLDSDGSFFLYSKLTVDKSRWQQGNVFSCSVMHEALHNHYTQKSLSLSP
light: B3 light
notes: anti-epiregulin IgG1; also called H240-G1d/H240-G1d/L73-k0; naturally occurring IgG1

- Kd [14]: 1200 nM
- Kd [3]: 5.1 nM
- Kd [4]: 1.8 nM
- Kd [5]: 350 nM
- Kd [6]: 280 nM
- Kd [7]: 0.14 nM
- Kd [15]: 1200 nM
- Kd [8]: 5.1 nM
- Kd [9]: 1.8 nM
- Kd [10]: 350 nM
- Kd [11]: 280 nM
- Kd [12]: 0.14 nM
B5: H240-Kn061/H240-Hl071/L73-k0 (antibody, human IgG1, kappa)
heavy 1: B3 heavy 1 with Q234Y, M238S, E269D
heavy 2: B3 heavy 2 with E269D
light: B3 light
notes: heterodimerized anti-epiregulin IgG1; L234Y/L235Y/G236W/H268D/S298A in Kn061, K326D/A330M/K334E in Hl071; also called H240-Kn061/H240-HI071/L73-k0
